Data: patent US20100040602A1 (RIBOVAX BIOTECHNOLOGIES, published 2010)

Experiments:
[1] = biological target: T1, gH(Ag)-GST fusion protein (gH amino terminal region, amino acids 16-144, hCMV strain VR1814, fused in frame … (human cytomegalovirus strain VR1814, UniProt P12824 16-144)); experiment: ELISA, plate-coated gH(Ag)-GST, cell culture supernatant, anti-human IgG-HRP
T1 construct: also called gH antigen; not shown: Glutathione-S-Transferase (GST)
T1 chain: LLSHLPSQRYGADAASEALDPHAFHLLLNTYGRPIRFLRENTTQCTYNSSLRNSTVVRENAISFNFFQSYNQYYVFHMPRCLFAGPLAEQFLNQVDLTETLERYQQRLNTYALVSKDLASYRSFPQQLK

[2] = biological target: T2, CG3 antigen (recombinant interstrain fusion of gB Antigenic Domain 2 from hCMV strains AD169 and Towne) (human cytomegalovirus strain AD169; …); experiment: ELISA, CG3 antigen (gB AD2), cell culture supernatant
T2 construct: Commercial antigen (Biotest AG, cod. 807035); also called gB (AD2) antigen
T2 chain: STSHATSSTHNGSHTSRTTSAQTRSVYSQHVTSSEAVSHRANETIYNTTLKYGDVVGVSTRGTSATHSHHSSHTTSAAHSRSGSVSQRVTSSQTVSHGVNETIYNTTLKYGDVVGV

B1: 26A1 antibody (natural human IgG1 secreted by the 26A1 subculture, tested as cell culture supernatant) (antibody, V domains shown)
VH: QVQLQESGPGLVKPSQTLSLICTVSGGSVSSGGDYWTWIRQHPGKGLEWLGYIHSSGNIFYNPSLKSRLTLSMDTSKNQFFLKLTSVTAADTAVYYCARVYHKDFVVVPGAFPFEFWFDPWGQGTLVTVSS
VL: SYVLTQPPSVSVAPGQTARIPCGGNEIGSKSVHWYQQKPGQAPVLVVHDDSDRPSGIPDRFSGSNSGNTATLTISRVEAGDEADYYCQVWDSGSDHHVVFGGGTKLTVLG
notes: It is a human IgG1; also called 26A1 IgG; IgG1 produced by 26A1 culture
Q: What does the source list for B1?
A: binding result [1]: no binding; binding result [2]: no binding
